Laboratory results reported in PMC3509593, “Role of Key Residues at the Flavin Mononucleotide (FMN):Adenylyltransferase Catalytic Site of the Bifunctional Riboflavin Kinase/Flavin Adenine Dinucleotide (FAD) Synthetase from Corynebacterium ammoniagenes” (International Journal of Molecular Sciences, 2012).

Target: the molecule itself
Assay: SEC; gel filtration of the purified samples on a HiPrep 26/60 Sephacryl S-200 HR column, used to separate the monomeric fraction

B1: FAD synthetase from Corynebacterium ammoniagenes (wild type) (enzyme)
chain: MDIWYGTAAVPKDLDNSAVTIGVFDGVHRGHQKLINATVEKAREVGAKAIMVTFDPHPVSVFLPRRAPLGITTLAERFALAESFGIDGVLVIDFTRELSGTSPEKYVEFLLEDTLHASHVVVGANFTFGENAAGTADSLRQICQSRLTVDVIDLLDDEGVRISSTTVREFLSEGDVARANWALGRHFYVTGPVVRGAGRGGKELGFPTANQYFHDTVALPADGVYAGWLTILPTEAPVSGNMEPEVAYAAAISVGTNPTFGDEQRSVESFVLDRDADLYGHDVKVEFVDHVRAMEKFDSVEQLLEVMAKDVQKTRTLLAQDVQAHKMAPETYFLQAES
notes: FAD synthetase (bifunctional RFK/FMNAT) of Corynebacterium ammoniagenes; N-terminal FMNAT-module residues 1-186 and C-terminal RFK-module residues 187-338; also called CaFADS; WT CaFADS; source: gel filtration on Sephacryl S-200 HR
- binding result: binds
